Legend:
Format in all cases: biochemical
(GR)10 [1] = assay: Cleavage of (GR)10 by enzymes in solution (PBS with CaCl2 and MgCl2), LC/MS of GR repeats; details: in solution, activated with 2.5 mM DTT
Protocol: • (GR)10 dipeptide (also (GR)8, (GR)6, (GR)4, (GR)2) were synthetized by solid-phase synthesis by CanPeptide; All peptides are uncapped and supplied lyophilized with TFA as counter ions. Purity was always above 95%. • Buffer: PBS buffer containing CaCl2 and MgCl2. • Stock solution of enzyme (e.g., 10 mg/mL) (prepared per manufacturer instructions) in PBS. Activators added as necessary. • Working solution of protein of the desired concentration (e.g., 100 μg/mL) prepared immediately before use by diluting the stock solution (e.g., 5 μL of 10 mg/mL stock solution) in PBS buffer (e.g., in 495 μL of PBS). Exemplary Procedure Using 50 μM Concentrations of (GR)10
25 μL of a 100 μM solution of (GR)10 was added to each well of a 96-well plate. 25 μL of a solution of enzyme (two times the desired final enzyme concentration) was added, and the plates were incubated at room temperature. At the specified time points (5 minutes, 10 minutes, 30 minutes, 60 minutes, and 180 minutes) 2.5 μL of a 10% TFA solution were added to stop the reaction. For the time 0 min well, the TFA was added to the well before addition of the enzyme. After last time point, all samples were further diluted with 150 μL of dilution solution. The quenched reaction mixtures were analyzed by LC/MS to determine the concentration of GR repeats of different lengths.
The chromatography and mass spectrometry conditions utilized are shown in Table 2 and Table 3, respectively.

(GR)10 [2] = assay: (GR)10 digestion with immobilized proteases (NHS-activated agarose resin) in PBS; details: immobilized
Protocol: (§1) Protease solutions were prepared at 2 mg/mL in sterile PBS with calcium, magnesium and 200 μL ([…]) were applied to 100 μL of pre-washed NHS-activated agarose resin in 0.8 mL centrifuge columns. Reactions were left 1.5 hour at room temperature with end-to-end mixing, after which resins were washed with 12 resin volumes of PBS. Unreacted sites were blocked with 500 μL of 1M ethanolamine for 15 minutes at room temperature and resins were further washed with 24 resin volumes. Resins were stored at 4 degrees in 500 μL of PBS containing 0.05% sodium azide as preservative.
110 μL of 50 μM (GR)10 dipeptide repeats prepared in PBS were added to each immobilized protease and incubated 5 minutes at room temperature with end-to-end mixing. Columns were spun down 1 minute at 1,000 Xg to recover digested GR dipeptides. Columns were washed with 110 μL of PBS to increase (GR)10 recovery. This procedure was repeated with 60 minutes digestion time. 100 μL of each samples were transferred to a new tube and 5 μL of 10% TFA followed by 300 μL of Dilution Solution were added. The reaction mixtures were analyzed by LC/MS to determine the concentration of GR repeats of different lengths.

(GR)10 [3] = assay: (GR)10 digestion with immobilized proteases in human cerebrospinal fluid (CSF); details: immobilized enzyme
Protocol: as §1
200 μM of (GR)10 were diluted in human cerebrospinal fluid (CSF) and 400 μL were applied to each immobilized proteases. The reaction was incubated 5 minutes at room temperature with end-to-end mixing. Columns were spun down 1 minute at 1,000 Xg to recover digested GR dipeptides. Columns were washed with 12 resin volumes of PBS. The procedure was repeated with 60 minutes digestion time. 100 μL of each samples were transferred to a clean tube, flash-frozen and subsequently used for LC/MS quantification of GR repeats of different lengths. The remaining 300 μL of each samples were flash-frozen and used to assess neuron toxicity.
(GR)10 was digested with exemplary immobilized enzymes as described above in the subsection titled “(GR)10 digestion with immobilized proteases in CSF” of Example 3. Clostripain experiments were conducted with and without DTT activation (no DTT during digestion). The results obtained after 5 and 60 minutes of reaction time are presented in Table 25 and shown in FIG. 5 (commercial and in-house immobilized trypsin), FIG. 6 (immobilized elastase, FIG. 7A (immobilized clostripain without DTT) and FIG. 7 (immobilized clostripain with 2.5 mM DTT).

[4] = 2.5 mM DTT, resin wash from 5 min reaction
[5] = 2.5 mM DTT, resin wash from 60 min reaction
[6] = activated with 2.5 mM DTT, 5 min reaction
[7] = activated with 2.5 mM DTT, 60 min reaction

B1: Clostripain + DTT (protein)
chain: NKNQKVTIMYYCDADNNLEGSLLNDIEEMKTGYKDSPNLNLIALVDRSPRYSSDEKVLGEDFSDTRLYKIEHNKANRLDGKNEFPEISTTSKYEANMGDPEVLKKFIDYCKSNYEADKYVLIMANHGGGAREKSNPRLNRAICWDDSNLDKNGEADCLYMGEISDHLTEKQSVDLLAFDACLMGTAEVAYQYRPGNGGFSADTLVASSPVVWGPGFKYDKIFDRIKAGGGTNNEDDLTLGGKEQNFDPATITNEQLGALFVEEQRDSTHANGRYDQHLSFYDLKKAESVKRAIDNLAVNLSNENKKSEIEKLRGSGIHTDLMHYFDEYSEGEWVEYPYFDVYDLCEKINKSENFSSKTKDLASNAMNKLNEMIVYSFGDPSNNFKEGKNGLSIFLPNGDKKYSTYYTSTKIPHWTMQSWYNSIDTVKYGLNPYGKLSWCKDGQDPEINKVGNWFELLDSWFDKTNDVTGGVNHYQW
(GR)10 [1]; 5 min reaction
  (GR)1 (normalized to GR concentration): 86.8 µM
  (GR)2 (normalized to GR concentration): 113.6 µM
  (GR)3 (normalized to GR concentration): 40.5 µM
  (GR)4 (normalized to GR concentration): 27.2 µM
  (GR)5 (normalized to GR concentration): 12.1 µM
  (GR)6 (normalized to GR concentration): 7.3 µM
  (GR)8 (normalized to GR concentration): 0.0 µM
  (GR)10 (normalized to GR concentration): 5.7 µM
(GR)10 [1]; 60 min reaction
  (GR)1 (normalized to GR concentration): 387.0 µM
  (GR)2 (normalized to GR concentration): 0.0 µM
  (GR)3 (normalized to GR concentration): 0.0 µM
  (GR)4 (normalized to GR concentration): 0.0 µM
  (GR)5 (normalized to GR concentration): 0.0 µM
  (GR)6 (normalized to GR concentration): 0.0 µM
  (GR)8 (normalized to GR concentration): 0.0 µM
  (GR)10 (normalized to GR concentration): 0.0 µM
(GR)10 [2]; [4]
  (GR)1 (normalized to GR concentration): 99.1 µM
  (GR)2 (normalized to GR concentration): 0.0 µM
  (GR)3 (normalized to GR concentration): 0.0 µM
  (GR)4 (normalized to GR concentration): 0.0 µM
  (GR)5 (normalized to GR concentration): 0.0 µM
  (GR)6 (normalized to GR concentration): 0.0 µM
  (GR)8 (normalized to GR concentration): 0.0 µM
  (GR)10 (normalized to GR concentration): 0.0 µM
(GR)10 [2]; [5]
  (GR)1 (normalized to GR concentration): 125.6 µM
  (GR)2 (normalized to GR concentration): 0.0 µM
  (GR)3 (normalized to GR concentration): 0.0 µM
  (GR)4 (normalized to GR concentration): 0.0 µM
  (GR)5 (normalized to GR concentration): 0.0 µM
  (GR)6 (normalized to GR concentration): 0.0 µM
  (GR)8 (normalized to GR concentration): 0.0 µM
  (GR)10 (normalized to GR concentration): 0.0 µM
(GR)10 [2]; [6]
  (GR)1 (normalized to GR concentration): 299.3 µM
  (GR)2 (normalized to GR concentration): 0.0 µM
  (GR)3 (normalized to GR concentration): 0.0 µM
  (GR)4 (normalized to GR concentration): 0.0 µM
  (GR)5 (normalized to GR concentration): 0.0 µM
  (GR)6 (normalized to GR concentration): 0.0 µM
  (GR)8 (normalized to GR concentration): 0.0 µM
  (GR)10 (normalized to GR concentration): 0.0 µM
(GR)10 [2]; [7]
  (GR)1 (normalized to GR concentration): 335.6 µM
  (GR)2 (normalized to GR concentration): 0.0 µM
  (GR)3 (normalized to GR concentration): 0.0 µM
  (GR)4 (normalized to GR concentration): 0.0 µM
  (GR)5 (normalized to GR concentration): 0.0 µM
  (GR)6 (normalized to GR concentration): 0.0 µM
  (GR)8 (normalized to GR concentration): 0.0 µM
  (GR)10 (normalized to GR concentration): 0.0 µM
(GR)10 [3]; 5 min reaction
  (GR)1 (normalized uM): 79.8 µM
  (GR)2 (normalized uM): 83.2 µM
  (GR)3 (normalized uM): 70.5 µM
  (GR)4 (normalized uM): 90.8 µM
  (GR)5 (normalized uM): 90.5 µM
  (GR)6 (normalized uM): 86.4 µM
  (GR)8 (normalized uM): 64.8 µM
  (GR)10 (normalized uM): 58 µM
(GR)10 [3]; 60 min reaction
  (GR)1 (normalized uM): 458.3 µM
  (GR)2 (normalized uM): 409.2 µM
  (GR)3 (normalized uM): 85.5 µM
  (GR)4 (normalized uM): 21.2 µM
  (GR)5 (normalized uM): 3 µM
  (GR)6 (normalized uM): 0 µM
  (GR)8 (normalized uM): 0 µM
  (GR)10 (normalized uM): 0 µM
